Results as given in patent US20150252107A1, “APLNR Modulators and Uses Thereof” (Regeneron Pharmaceuticals, Inc., priority 2013, published 2015).
Where “and” joins values, the source holds several entries; their conditions need not be identical. Equal values may be shown once. Entries after “also recorded” stand apart in the source; their conditions may differ.

Tests used:
hAPLNR = target: T1, hAPLNR (Homo sapiens, UniProt P35414); test: cyclic AMP (CRE-luciferase) assay, activation of hAPLNR in HEK293/CRE-luc/hAPLNR cells; type: cell-based; settings: % of maximum Apelin activation, without Apelin
T1 construct: expressed in transfected cells
T1 sequence (P35414 1-380): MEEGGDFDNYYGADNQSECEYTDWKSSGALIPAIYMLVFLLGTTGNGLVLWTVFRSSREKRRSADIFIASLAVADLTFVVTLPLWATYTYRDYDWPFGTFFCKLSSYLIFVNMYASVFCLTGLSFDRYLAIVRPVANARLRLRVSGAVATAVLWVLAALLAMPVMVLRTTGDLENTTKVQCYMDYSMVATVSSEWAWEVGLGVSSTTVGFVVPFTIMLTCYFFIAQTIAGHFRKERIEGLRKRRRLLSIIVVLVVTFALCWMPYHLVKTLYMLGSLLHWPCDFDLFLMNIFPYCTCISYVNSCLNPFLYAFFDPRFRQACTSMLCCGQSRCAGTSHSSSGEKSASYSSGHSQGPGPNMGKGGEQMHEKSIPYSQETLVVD
Protocol: The ability of anti-APLNR antibodies to activate hAPLNR-mediated cell signaling was measured using a cyclic AMP assay. The hAPLNR is a 7-transmembrane G-protein coupled receptor (GPCR).
The resulting cell line, HEK293/CRE-luc/hAPLNR, was maintained in DMEM containing 10% FBS, NEAA, penicillin/streptomycin, and 100 μg/mL Hygromycin B.
Testing of antibodies included a no antibody control.
The results of all assays were analyzed using nonlinear regression (4-parameter logistics) within Prism 5 software (GraphPad).

HEK293 parental cells = test: FACS binding to HEK293 parental cells; settings: 10 μg/mL antibody
Protocol: Binding ratios for human APLNR binding to purified anti-APLNR monoclonal antibodies were determined by a fluorescence-activated cell sorting (FACS) binding assay. […] The resulting stable cell lines, HEK293/CRE-luc/hAPLNR and HEK293/CRE-luc/MfAPLNR, were maintained in DMEM containing 10% FBS, NEAA, and penicillin/streptomycin with either 100 μg/mL Hygromycin B for hAPLNR cells or 500 μg/mL G418 for MfAPLNR cells.
For the FACS analysis, HEK293 parental, HEK293/CRE-luc/hAPLNR, and, HEK293/CRE-luc/mfAPLNR cells were dissociated using Enzyme Free Dissociation reagent (#S-004, Millipore, Billerica, Mass., USA) and 10^6 cells/well were plated onto 96-well v-bottom plates in PBS containing 1% FBS. […] Cells were then filtered and analyzed on Accuri Flow Cytometer (BD Biosciences, San Jose, Calif., USA). Unstained and secondary antibody alone controls were also tested for binding to all cell lines. […] Geometric mean (Geom. mean) of fluorescence for each antibody was then normalized to geometric mean of unstained cells to obtain relative binding of antibody (binding ratios) per each cell type: HEK293 (parental), HEK293/CRE-luc/hAPLNR and HEK293/CRE-luc/MfAPLNR.

[1] = target: T2, human APLNR (humanized APLNR mice) (Homo sapiens, UniProt P35414); test: retinal vascular development (RVD) model in humanized APLNR mouse pups; type: in vivo
T2 construct: homozygous for expression of human APLNR in place of mouse APLNR (humanized APLNR mice); from tissue; host or cells: living humanized APLNR mouse pups (75% C57BL6 / 25% Sv129); read-out in the retina
T2 sequence (P35414 1-380): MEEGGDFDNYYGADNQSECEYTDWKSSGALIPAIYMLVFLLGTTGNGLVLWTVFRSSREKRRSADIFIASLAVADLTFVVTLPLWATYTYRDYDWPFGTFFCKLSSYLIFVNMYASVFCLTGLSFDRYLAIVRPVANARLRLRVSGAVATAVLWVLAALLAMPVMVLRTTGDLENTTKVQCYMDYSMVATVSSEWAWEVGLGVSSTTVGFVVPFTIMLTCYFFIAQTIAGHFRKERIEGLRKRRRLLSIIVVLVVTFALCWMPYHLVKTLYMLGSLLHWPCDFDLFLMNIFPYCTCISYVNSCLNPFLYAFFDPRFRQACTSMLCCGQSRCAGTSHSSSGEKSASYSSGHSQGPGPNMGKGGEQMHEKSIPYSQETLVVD
Protocol: To assess the in vivo characteristics of select anti-APLNR antibodies of the invention, their ability to block APLNR-mediated angiogenesis in the eye vasculature was measured.
A retinal vascular development (RVD) model was used to evaluate the effects of an antagonistic anti-APLNR antibody on blood vessel outgrowth in the normal developing retina of mouse pups that were of a mixed background strain (75% C57BL6 and 25% Sv129) and homozygous for expression of human APLNR in place of mouse APLNR (humanized APLNR mice). Pups were subcutaneously injected on postnatal day 2 (P2) with either 50 mg/kg of an anti-APLNR antagonist antibody, H2aM9232N, or an irrelevant human Fc (hFc) control. Reagents were masked and labeled as Solution A and Solution B to prevent experimenter bias. At postnatal day 5, tissue samples were collected and then fixed in PBS containing 4% paraformaldehyde. Fixed tissue samples were washed with PBS three times for 15 minutes, and subsequently stained with GS Lectin I (Vector Laboratories, #FL-1101) diluted 1:200 in 1×PBS containing 1% BSA in 0.25% Triton-X 100 overnight at 25° C. to visualize retinal vasculature. The following day, stained samples were rinsed with PBS three times for 15 minutes each, flat-mounted onto slides, and coverslips were subsequently mounted using Prolong Gold (Invitrogen, #P36930). Images were taken at 20 times magnification using an epi-fluorescent microscope (Nikon Eclipse 80). The vascularized areas in the retina were measured from acquired images from this assay using Adobe Photoshop CS6 extended. Statistical differences between the results obtained from the IgG control antibody and H2aM9232N treated samples were assessed using a two tailed, unpaired Student T-test (**, p<0.001). Only after retinal vasculature area measurements and statistical analysis were completed, the sample identities were unmasked.

B1: H2aM9232N: antagonistic anti-APLNR antibody, HCVR/LCVR SEQ ID NOs 98/106, mouse IgG2a Fc (antibody, V domains shown)
VH: QVKLVESGGGVVQPGRSLRLSCAASGFTFSNYVIHWVRQAPGKGLEWVAVIWYDGSNKYYADSVKGRFTISRDNSKNTLYLQMNSLRAEDTAVYYCARDRVVRGVDYYYYYGLDVWGQGTSVTVSS
VL: EIVMTQSPATLSVSPGERATLSCRASQSVRSNLAWYQQKPGQAPRLLIYGASSRATGIPARFSGTGSGTEFTLTISSLQSDDFAVYYCQQYNKWPRTFGQGTKVEIK
modifications: mouse IgG2a Fc
- % Activation at 100 nM mAb (at 10 uM Forskolin) (hAPLNR; Table 6A): No Activation
- % Activation at 500 nM mAb (at […] Forskolin) (hAPLNR; Table 6B): did not demonstrate any measurable activation; also recorded: No Activation
- Binding Ratio of Geom. Mean to Unstained Cells, HEK293 Parental (HEK293 parental cells): 6
- Retinal blood vessel outgrowth (mm^2), MEAN ([1]; 50 mg/kg s.c. on postnatal day 2, read at postnatal day 5): 2.84 mm^2
- Retinal blood vessel outgrowth (mm^2), individual eye ([1]; 50 mg/kg s.c. on postnatal day 2, read at postnatal day 5, single eyes (OD/OS)): 2.49 mm^2 and 3.04 mm^2 and 3.57 mm^2 and 3.32 mm^2 and 2.23 mm^2 and 2.36 mm^2
- mean reduction in retinal blood vessel outgrowth compared to control (hFc) ([1]; single s.c. injection 50 mg/kg, postnatal day 5): approximately 30%
